In data set [1] the test system is T1, 2FJG4P (artificial (motif derived from human FANCJ)).
T1 sequence: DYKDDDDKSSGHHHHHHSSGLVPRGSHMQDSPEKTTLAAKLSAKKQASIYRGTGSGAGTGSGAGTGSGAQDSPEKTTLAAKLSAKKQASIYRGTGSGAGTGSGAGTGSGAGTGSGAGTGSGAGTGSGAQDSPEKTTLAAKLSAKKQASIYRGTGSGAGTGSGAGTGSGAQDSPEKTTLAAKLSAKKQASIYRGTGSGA
The data set can be described thus: smTIRFM (koff/kon). The settings on record: EMSA: DNA annealed in 200 mM Tris pH 7.4, 100 mM KCl, 1 mM EDTA; binding 10 min at 25 C, native PAGE; smTIRFM: 100 pM tethered DNA, 100-5000 pM protein, buffer ….

For data set [2], the system named is T2, G4P (artificial (RSM derived from human RHAU/DHX36)).
T2 sequence: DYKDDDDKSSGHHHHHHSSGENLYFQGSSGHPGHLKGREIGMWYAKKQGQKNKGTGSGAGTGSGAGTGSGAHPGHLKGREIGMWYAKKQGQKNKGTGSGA
Nature of the data set: smTIRFM (koff/kon). The settings on record: EMSA: DNA annealed in 200 mM Tris pH 7.4, 100 mM KCl, 1 mM EDTA; binding 10 min at 25 C, native PAGE; smTIRFM: 100 pM tethered DNA, 100-5000 pM protein, buffer …. A general note: In EMSA bound probe runs differently from free probe, usually more slowly.

The subject of data set [3] is T3, FJG4P (artificial (motif derived from human FANCJ)).
T3 sequence: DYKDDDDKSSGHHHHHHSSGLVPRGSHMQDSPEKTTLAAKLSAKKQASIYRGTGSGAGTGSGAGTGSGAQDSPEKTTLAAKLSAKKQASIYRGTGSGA
The data set can be described thus: smTIRFM (koff/kon). The conditions noted are these: EMSA: DNA annealed in 200 mM Tris pH 7.4, 100 mM KCl, 1 mM EDTA; binding 10 min at 25 C, native PAGE; smTIRFM: 100 pM tethered DNA, 100-5000 pM protein, buffer ….

In data set [4] the target is T4, G4P (artificial (RSM derived from human …)).
T4 chain: T2 sequence
Nature of the data set: smTIRFM (koff/kon); kon 2.16e9 M-1 s-1, koff 0.61 s-1; EMSA: DNA annealed in 200 mM Tris pH 7.4, 100 mM KCl, 1 mM EDTA; binding 10 min at 25 C, native PAGE; smTIRFM: 100 pM tethered DNA, 100-5000 pM protein, buffer. The conditions noted are these: protein: recombinant; tags: N-terminal FLAG-6xHis; label: 3' biotin on strand 2; 18 bp duplex with 3' ssDNA tail folded as parallel G4.

The target in data set [5] is T5, 2G4P (artificial (RSM derived from human …)).
T5 chain: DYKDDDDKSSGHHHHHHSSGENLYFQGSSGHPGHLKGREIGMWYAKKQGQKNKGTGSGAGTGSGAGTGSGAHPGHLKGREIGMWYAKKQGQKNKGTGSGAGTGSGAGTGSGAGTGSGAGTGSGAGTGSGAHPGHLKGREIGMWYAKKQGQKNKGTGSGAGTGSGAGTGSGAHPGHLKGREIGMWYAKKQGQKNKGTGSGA
The data set can be described thus: smTIRFM (koff/kon); kon 3.9e9 M-1 s-1, koff 0.62 s-1; EMSA: DNA annealed in 200 mM Tris pH 7.4, 100 mM KCl, 1 mM EDTA; binding 10 min at 25 C, native PAGE; smTIRFM: 100 pM tethered DNA, 100-5000 pM protein, buffer. The conditions noted are these: protein: recombinant; tags: N-terminal FLAG-6xHis; label: 3' biotin on strand 2; 18 bp duplex with 3' ssDNA tail folded as parallel G4.

For data set [6], the target named is T6, FJG4P (artificial (motif derived from human …)).
T6 chain: T3 sequence
Nature of the data set: smTIRFM (koff/kon); kon 3.45e9 M-1 s-1, koff 0.94 s-1; EMSA: DNA annealed in 200 mM Tris pH 7.4, 100 mM KCl, 1 mM EDTA; binding 10 min at 25 C, native PAGE; smTIRFM: 100 pM tethered DNA, 100-5000 pM protein, buffer. The conditions noted are these: protein: recombinant; tags: N-terminal FLAG-6xHis; label: 3' biotin on strand 2; 18 bp duplex with 3' ssDNA tail folded as parallel G4.

Data set [7] concerns the target T7, 2FJG4P (artificial (motif derived from human …)).
T7 chain: T1 sequence
The data set can be described thus: smTIRFM (koff/kon); kon 4.7e9 M-1 s-1, koff 1.0 s-1; EMSA: DNA annealed in 200 mM Tris pH 7.4, 100 mM KCl, 1 mM EDTA; binding 10 min at 25 C, native PAGE; smTIRFM: 100 pM tethered DNA, 100-5000 pM protein, buffer. The conditions noted are these: protein: recombinant; tags: N-terminal FLAG-6xHis; label: 3' biotin on strand 2; 18 bp duplex with 3' ssDNA tail folded as parallel G4.

Data set [8] deals with T7, 2FJG4P. Nature of the data set: smTIRFM (koff/kon); kon 0.0339e9 M-1 s-1, koff 0.4 s-1; EMSA: DNA annealed in 200 mM Tris pH 7.4, 100 mM KCl, 1 mM EDTA; binding 10 min at 25 C, native PAGE; smTIRFM: 100 pM tethered DNA, 100-5000 pM protein, buffer. The conditions noted are these: protein: recombinant; tags: N-terminal FLAG-6xHis; label: 3' biotin on strand 2; 18 bp duplex with 3' ssDNA tail folded as G4, mixed topology.

The target of data set [9] is T6, FJG4P. Nature of the data set: smTIRFM (koff/kon); kon 0.01e9 M-1 s-1, koff 0.33 s-1; EMSA: DNA annealed in 200 mM Tris pH 7.4, 100 mM KCl, 1 mM EDTA; binding 10 min at 25 C, native PAGE; smTIRFM: 100 pM tethered DNA, 100-5000 pM protein, buffer. The conditions noted are these: protein: recombinant; tags: N-terminal FLAG-6xHis; label: 3' biotin on strand 2; 18 bp duplex with 3' ssDNA tail folded as G4, mixed topology.

Data set [10] deals with T5, 2G4P. The data set can be described thus: smTIRFM (koff/kon); kon 0.0845e9 M-1 s-1, koff 0.29 s-1; EMSA: DNA annealed in 200 mM Tris pH 7.4, 100 mM KCl, 1 mM EDTA; binding 10 min at 25 C, native PAGE; smTIRFM: 100 pM tethered DNA, 100-5000 pM protein, buffer. The settings on record: protein: recombinant; tags: N-terminal FLAG-6xHis; label: 3' biotin on strand 2; 18 bp duplex with 3' ssDNA tail folded as G4, mixed topology.

The target in data set [11] is T4, G4P. Nature of the data set: smTIRFM (koff/kon); kon 0.43e9 M-1 s-1, koff 0.67 s-1; EMSA: DNA annealed in 200 mM Tris pH 7.4, 100 mM KCl, 1 mM EDTA; binding 10 min at 25 C, native PAGE; smTIRFM: 100 pM tethered DNA, 100-5000 pM protein, buffer. The conditions noted are these: protein: recombinant; tags: N-terminal FLAG-6xHis; label: 3' biotin on strand 2; 18 bp duplex with 3' ssDNA tail folded as G4, mixed topology.

In data set [12] the target is T4, G4P. The data set can be described thus: EMSA; EMSA: DNA annealed in 200 mM Tris pH 7.4, 100 mM KCl, 1 mM EDTA; binding 10 min at 25 C, native PAGE; smTIRFM: 100 pM tethered DNA, 100-5000 pM protein, buffer. The settings on record: protein: recombinant, tags: N-terminal FLAG-6xHis.
Data set [13] addresses T7, 2FJG4P. The data set is described as above. The conditions noted are these: protein: recombinant; tags: N-terminal FLAG-6xHis; label: 3' 6-FAM; intramolecular parallel G4.
The target of data set [14] is T6, FJG4P. The data set is described as above. The settings on record: protein: recombinant; tags: N-terminal FLAG-6xHis; label: 3' 6-FAM; intramolecular parallel G4.
For data set [15], the target named is T5, 2G4P. The data set is described as above. The conditions noted are these: protein: recombinant, tags: N-terminal FLAG-6xHis.
Data set [16] concerns the target T5, 2G4P. The data set can be described thus: mass photometry; higher molecular weight complexes; EMSA: DNA annealed in 200 mM Tris pH 7.4, 100 mM KCl, 1 mM EDTA; binding 10 min at 25 C, native PAGE; smTIRFM: 100 pM tethered DNA, 100-5000 pM protein, buffer. The settings on record: protein: recombinant; tags: N-terminal FLAG-6xHis; two G4s, mixed topology.
In data set [17] the target is T7, 2FJG4P. The data set can be described thus: mass photometry; largest network size; EMSA: DNA annealed in 200 mM Tris pH 7.4, 100 mM KCl, 1 mM EDTA; binding 10 min at 25 C, native PAGE; smTIRFM: 100 pM tethered DNA, 100-5000 pM protein, buffer. The conditions noted are these: protein: recombinant; tags: N-terminal FLAG-6xHis; two G4s, mixed topology.
The target of data set [18] is T6, FJG4P. Nature of the data set: EMSA; no detectable binding; EMSA: DNA annealed in 200 mM Tris pH 7.4, 100 mM KCl, 1 mM EDTA; binding 10 min at 25 C, native PAGE; smTIRFM: 100 pM tethered DNA, 100-5000 pM protein, buffer. The settings on record: protein: recombinant; tags: N-terminal FLAG-6xHis; label: 5' fluorescein; intramolecular G4, mixed topology.
Data set [19] addresses T7, 2FJG4P. The data set can be described thus: mass photometry; higher molecular weight complexes; EMSA: DNA annealed in 200 mM Tris pH 7.4, 100 mM KCl, 1 mM EDTA; binding 10 min at 25 C, native PAGE; smTIRFM: 100 pM tethered DNA, 100-5000 pM protein, buffer. The conditions noted are these: protein: recombinant; tags: N-terminal FLAG-6xHis; G4, mixed topology.
The mark [20] stands for this setting: label: 3' 6-FAM, intramolecular parallel G4.
Setting [21] is: label: 5' fluorescein, intramolecular G4, mixed topology.

The Kd is the concentration at which binding is half-saturated.

For the molecule “TGGCGACGGCAGCGAGGCTTAGGGTTAGGGTTAGGGTTTAGGGTTAGGGTTAGGGTTAGGGTTTAGGGTTAGGG / GCCTCGCTGCCGTCGCCA [2hTelG4 (smTIRFM tethering)]”, the values for the Kd in data set [1], in data set [2] and in data set [3] were 4.6 nM, 1.9 nM and 14.5 nM, respectively.

B1: c-MYCG4 (smTIRFM tethering) (mixed)
DNA 1: TGGCGACGGCAGCGAGGCTGGGTGGGTAGGGTGGGTTT
DNA 2: GCCTCGCTGCCGTCGCCA
On to B1, for which the Kd was 0.22 ± 0.02 nM with G4P [4], 0.16 ± 0.01 nM with 2G4P [5], 0.27 ± 0.03 nM with FJG4P [6] and 0.2 ± 0.01 nM with 2FJG4P [7].

B2: hTelG4 (smTIRFM tethering) (mixed)
DNA 1: TGGCGACGGCAGCGAGGCTTAGGGTTAGGGTTAGGGTTTAGGGTTAGGG
DNA 2: GCCTCGCTGCCGTCGCCA
As to B2, the Kd is 10.7 ± 1.7 nM with 2FJG4P [8], 32.7 ± 4.8 nM with FJG4P [9], 3.4 ± 0.3 nM with 2G4P [10] and 1.6 ± 0.1 nM in the data set with G4P [11].

B3: c-MYCG4 (EMSA) (structured_DNA)
DNA: TGGGTGGGTAGGGTGGGTTT
As to B3, the Kd with G4P [12] (setting [20]) is 84.1 ± 8 nM; with 2FJG4P [13], 130 ± 63 nM; with FJG4P [14], 110 ± 58.9 nM; with 2G4P [15] (setting [20]), 27.7 ± 4 nM.

B4: 2hTelG4 (mass photometry) (structured_DNA)
DNA: TTAGGGTTAGGGTTAGGGTTTAGGGTTAGGGTTAGGGTTAGGGTTAGGGTTTAGGGTTAGGG
Take B4: the binding result with 2G4P [16] and with 2FJG4P [17] was “binds” in each case.

B5: hTelG4 (EMSA) (structured_DNA)
DNA: TTAGGGTTAGGGTTAGGGTTTAGGGTTAGGG
With B5, the binding result with FJG4P [18] is given as “no binding”. Besides, the dissociation constant Kd with G4P [12] (setting [21]) worked out at 558 ± 157 nM; with 2G4P [15] (setting [21]) it was 86.2 ± 6 nM.

B6: hTelG4 (mass photometry) (structured_DNA)
DNA: B5 DNA
Regarding B6, in the data set with 2FJG4P [19], the binding result is listed as “binds”.

These data come from paper PMC10299155, “Single-Molecule Analysis of the Improved Variants of the G-Quadruplex Recognition Protein G4P”.
